Assay results from patent US20110229556A1, “LIPID-COATED POLYMER PARTICLES FOR IMMUNE STIMULATION” (Massachusetts Institute of Technology, priority 2010, published 2011).
Entries after “also recorded” stand apart in the source; their conditions may differ.

Assays:
OVA-specific serum IgG = test: Serum total anti-OVA IgG ELISA after s.c. immunization; type: in vivo, BALB/c or C57B1/6 mice
Method: Antibody titer measurements. Total IgG titers from sera were measured using an ELISA by adsorbing OVA to flat-bottom transparent 96-well plates at room temperature overnight, blocking overnight with bovine serum albumin, adding serially-diluted serum (starting from a minimal dilution of 200×) for 2 hr, and then detecting bound OVA-specific IgG antibody using HRP-labeled anti-mouse IgG (Bio-Rad). Plates were washed between each step using 0.05% Tween-20 in PBS. HRP developed with tetramethylbenzidine was measured using a Molecular Devices SpectraMax Microplate Reader. Monoclonal mouse anti-OVA IgG1 (clone OVA-14, Sigma-Aldrich, St. Louis, Mo.) was included as a standard reference in each assay. Endpoint titers were defined as the highest dilution at which immunized serum ELISA signal exceeded the average+2 standard deviations of pre-immune sera analyzed in parallel. To interpret our titer values in more physiological terms, we used OVA-14 as a standard to determine the concentration of OVA-specific IgG as equivalents of this monoclonal antibody.

[1] = tested on: naïve OT-I (CD8+) T-cells; test: Priming of naïve OT-I T-cells by particle-pulsed splenic DCs (CFSE dilution); type: cell-based, mice; details: DCs pulsed with 10,000-fold higher doses of soluble OVA than the particle dose, with or without MPLA; not shown
Method: Responses of naïve CD4^+ or CD8^+ T-cells transgenically expressing T cell receptors specific for OVA-derived peptides were assessed by in vitro co-culture of OT-II or OT-I primary T-cells with particle-pulsed DCs. Primary dendritic cells were isolated from spleens of C57B1/6 mice by digesting spleens with collagenase and isolating DCs using a CD11c^+ magnetic bead isolation kit (Miltenyi Biotec). In parallel, naïve CD4^+ T-cells or CD8+ T-cells were isolated from OT-II or OT-I TCR-transgenic mice, respectively (Jackson Laboratories), and labeled with CFSE to trace cell division following the manufacturer's instructions. OVA-loaded particles with post-inserted MPLA or soluble OVA/MPLA were added to splenic DCs (12,500 cells/well) at titrated cell:antigen ratios (starting from 40:1 particles:DC, corresponding to 6.2 μg particles), and incubated for 3 hr in a total volume of 150 μL/well at 37° C. and 5% CO2. CFSE-labeled OT-I or OT-II cells (50,000 cells/well) were then added to DCs in a volume of 50 μL complete RPMI media. This total culture volume of 200 μL/well was incubated for 3 days at 37° C. and 5% CO2 to allow proliferation of T-cells, and CFSE dilution was then measured by flow cytometry.

OVA-specific IgG = test: Avidity of OVA-specific IgG (ELISA with 6M urea wash); type: in vivo, BALB/c mice; details: BALB/c, 10 ng OVA, boost day 21, day 28 sera, 6M urea 10 min
Method: The avidity of IgG responses to immunization was measured using an ELISA analysis of serum binding in the presence of urea using a commonly reported procedure from the literature. Serum titer analysis was conducted in duplicate assay plates until serum adsorption was complete. At this point, one plate was incubated in the presence of 6M urea for 10 min followed by washing and detection of bound IgG on both plates as above. Avidity indices were defined as the serum dilution of urea-treated samples where the ELISA absorbance was 0.5 divided by the dilution of untreated samples giving the same absorbance.

CCCCCCCCCCCCCCCCCCCCCCCCCC(=O)N[C@@H](CO[C@H]1O[C@H](CO)[C@H](O)[C@H](O)[C@H]1O)[C@H](O)[C@H](O)CCCCCCCCCCCCCC [αGC solution, α-galactosylceramide, reference compound]
IgG titers 14 days after a single immunization, αGC dose titration (OVA-specific serum IgG; BALB/c, 2 ng OVA on microparticles with 10 ng, 100 ng, or 1 μg αGC (on particles or in solution 10 min before at same site)): only a fraction of mice had detectable titers; also recorded: equally effective

B1: ovalbumin (protein, UniProt P01012 2-386, looked up)
Ovalbumin: GSIGAASMEFCFDVFKELKVHHANENIFYCPIAIMSALAMVYLGAKDSTRTQINKVVRFDKLPGFGDSIEAQCGTSVNVHSSLRDILNQITKPNDVYSFSLASRLYAEERYPILPEYLQCVKELYRGGLEPINFQTAADQARELINSWVESQTNGIIRNVLQPSSVDSQTAMVLVNAIVFKGLWEKAFKDEDTQAMPFRVTEQESKPVQMMYQIGLFRVASMASEKMKILELPFASGTMSMLVLLPDEVSGLEQLESIINFEKLTEWTSSNVMEERKIKVYLPRMKMEEKYNLTSVLMAMGITDVFSSSANLSGISSAESLKISQAVHAAHAEINEAGREVVGSAEAGVDAASVSEEFRADHPFLFCIKHIATNAVLFFGRCVSP
notes: model protein antigen ovalbumin dissolved in saline
OT-I proliferation [1]: minimal OT-I proliferation | anti-OVA IgG titers (OVA-specific serum IgG; BALB/c, 10 ng OVA s.c. prime, boost with same dose 3 weeks later, 1.3 μg MPLA and 600 ng αGC where used): only a subset of mice responded | time serum titers were maintained (OVA-specific serum IgG; BALB/c, 10 ng OVA s.c., boost 3 weeks later): not sustained in a majority of the mice | avidity: IgG binding following urea washes (OVA-specific IgG): no binding

B2: SAT(PEG)4-modified OVA: ovalbumin modified with the heterobifunctional cross-linker SAT(PEG)4 for particle coupling (protein, UniProt P01012 2-386, looked up)
Ovalbumin: B1 Ovalbumin
modifications: SAT(PEG)4 cross-linker modified
notes: ovalbumin modified with the heterobifunctional cross-linker SAT(PEG)4 for particle coupling
influence of SAT(PEG)4 modification on the protein's immunogenicity (OVA-specific serum IgG; data not shown): no significant influence
